Test results: the Human Domainome abundance scans (Beltran et al. 2025)

B1: Membrane-associated guanylate kinase, WW and PDZ domain-containing protein 2, residues 296 to 340; numbered along this chain, Q86UL8 (parent)
chain: EDNEEPDPLPDNWEMAYTEKGEVYFIDHNTKTTSWLDPRLAKKAK

Variants of: B1
Test: abundance fitness (aPCA) (normalised: wild type 0, dead -1); higher = more abundant; growth selection in yeast, the domain comes from the species named
Conditions: Homo sapiens

Abundance fitness: each site, then its substitutions
E22: V -0.325; M -0.314; Q -0.084; F -0.645; K -0.234; I -0.517; W -0.551; A -0.228; R -0.409; C -0.377; G -0.359; P -0.825; D -0.091; T -0.295; N -0.314; L -0.321; Y -0.404; S -0.227
D27: E -0.487; P -1.09; A -0.786; C -0.544; L -1.3; G -0.937; V -1.39; M -1.03; I -1.58; R -0.667; N -0.151; Y -0.217
E19: I -0.117; L -0.091; V -0.079; A 0.054; D -0.025; P -0.013; Q 0.02; G -0.107; W -0.319; T 0.018; S -0.021; K -0.031; N 0.031; R -0.104
T33: E -0.655; D -0.848; M -0.488; A -0.438; W -0.763; I -0.507; L -0.635; C 0.021; G -0.776; Q -0.637; N -0.341; S -0.236; P -0.841; K -0.492; V -0.272
N29: V -0.051; S -0.011; Y -0.122; R -0.082; E -0.081; A 0.022; L -0.059; D -0.109; W -0.151; P -0.673; T -0.02; Q -0.13; G -0.019
T30: D -0.324; A -0.107; P -1.17; S 0.122; E -0.156; L -0.221; Q -0.155; F -0.575; M -0.388; R -0.183; V -0.386; C -0.185; G -0.256
I26: T -0.733; A -0.521; D -1.15; V 0.01; M 0.023; F -0.549; H -0.618; C -0.258; E -0.585; W -0.691; Q -0.259; L -0.089; S -0.677; R -0.379
A16: G -0.109; E -0.239; T -0.335; I -0.529; D -0.398; L -0.337; C -0.274; F -0.709; W -0.598; S 0.002; R -0.127; K -0.119; V -0.271; Y -0.432; M -0.254
K31: C -0.024; M -0.008; P -0.675; T -0.355; V -0.473; S -0.114; R 0.005; G -0.074; W -0.2; Y -0.235; I -0.498; H 0.103; E -0.08; L -0.155; Q 0.013; D -0.38
K20: D -0.022; L -0.078; S 0.002; E 0.027; A -0.02; P -0.353; M -0.004; R -0.032; Q 0.018; G -0.011; I -0.12; C -0.009; V -0.075; W -0.267; T -0.063
L36: W -0.078; M -0.053; G -0.198; C 0.153; V 0.025; N -0.186; T -0.127; S -0.125; H -0.298; R -0.051; I 0.086; A -0.117; E -0.111; K -0.012; P -0.776; D -0.227; F -0.184
T32: W -0.325; V -0.111; R -0.269; M -0.071; N -0.353; C 0.007; K -0.303; H -0.434; F -0.843; Q -0.199; S -0.08
M15: W -0.198; H -0.428; R -0.106; V -0.121; P -0.308; G -0.459; L -0.026
Y24: C -0.546; N -1.08; T -0.872; R -0.86; V -0.598; P -1.07; G -0.816; Q -0.809; L -0.557; W -0.568; S -0.703; A -0.664; D -0.618
T18: A -0.308; E -0.574; P -1.08; C -0.454; W -0.725; N -0.382; R -0.91; I -0.997; Y -0.93; G -0.354; L -0.514; F -0.953; Q -0.849; S -0.048; K -0.476
Y17: H 0.066; L 0.024; F -0.029; K -0.048; P -0.828; I 0.017; D -0.355; A -0.025; R 0.049; E -0.42; W 0.021; S -0.03; C 0.004; G -0.349; T -0.039; N -0.042
F25: T -0.839; N -0.756; G -0.75; L -0.896; K -0.637; V -1.05; S -0.777; E -0.661; W -0.103; R -0.715
W35: P -0.668; M -0.247; I -0.492; S -0.436; K -0.494; A -0.489; Q -0.365; V -0.473; D -0.547; F -0.083; Y -0.036; C -0.527; R -0.362; T -0.451; G -0.523
R39: W -0.607; H -0.419; A -0.514; V -0.52; G -0.46; L -0.63; Q -0.497; S -0.395; C -0.478; N -0.289; T -0.366; M -0.599; K -0.411; Y -0.769; P -0.633
D37: Y -0.697; I -0.832; E -0.569; Q -0.607; A -0.431; M -0.533; H -0.623; N -0.184; W -0.671; G -0.51; T -0.675; S -0.456; F -0.846; K -0.246; P -0.456; L -0.699; R -0.152; V -0.595
S34: V -0.758; L -1.14; A -0.43; R -0.629; W -0.784; G -0.463; E -0.826; C -0.181
G21: Y -0.337; R -0.174; I -0.865; F -0.33; E -0.14; H -0.081; M -0.152; V -0.975; K -0.163; D -0.169; Q -0.047; S -0.208; P -0.709; W -0.593; C -0.26; L -0.329
L40: G 0.076; S -0.022; P 0.043; R -0.002; K 0.091; A 0.059; Q 0.024; E 0.034; T 0.012; N 0.117
V23: P -0.038; Q 0.14; G -0.088; L -0.062; W -0.295; E -0.038
P38: V -0.979
H28: W -0.334; V -0.407; G -0.431; F -0.267; E -0.642; A -0.417; K -0.269; Y -0.525; P -0.652; R -0.243; Q -0.267
